# According to US20260015399A1 (Boehringer Ingelheim, published 2026):
# *1 amine or outer side, *2 acyl side, *3 side chain or, on linkers, in order; H or OH if unused. Side-chain parts run from the residue outwards. The star is where a group is joined. C18 diacid = O=C(O)CCCCCCCCCCCCCCCCC(=O)*; γGlu = O=C(O)[C@H](CCC(=O)[*:2])N[*:1]; Isovaleryl = CC(C)CC(=O)*; Ahx = NCCCCCC(=O)O
# T1: human NPY2 receptor (human, UniProt P49146 1-381)
# T1 construct: whole, on cells; also called hNPY2-R; hNPY2R
# T1 sequence (looked up): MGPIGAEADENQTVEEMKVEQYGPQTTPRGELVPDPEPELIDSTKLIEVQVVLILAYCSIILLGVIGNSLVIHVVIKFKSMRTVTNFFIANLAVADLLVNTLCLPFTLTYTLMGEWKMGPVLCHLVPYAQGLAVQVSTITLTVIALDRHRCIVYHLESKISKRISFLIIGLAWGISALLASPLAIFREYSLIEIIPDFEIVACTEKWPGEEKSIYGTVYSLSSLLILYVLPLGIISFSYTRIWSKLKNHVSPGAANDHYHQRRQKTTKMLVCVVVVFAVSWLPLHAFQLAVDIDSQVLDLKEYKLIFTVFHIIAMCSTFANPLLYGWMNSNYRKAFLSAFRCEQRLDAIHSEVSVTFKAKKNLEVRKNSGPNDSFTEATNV
# B1: Compound 120 (peptide)
# peptide: Isovaleryl-APAK([Ahx-γGlu-C18 diacid])PEEAATPEEIQRYYVALRHYYNWLTRQRY-NH2
# SMILES: CC[C@H](C)[C@H](NC(=O)[C@H](CCC(=O)O)NC(=O)[C@H](CCC(=O)O)NC(=O)[C@@H]1CCCN1C(=O)[C@@H](NC(=O)[C@H](C)NC(=O)[C@H](C)NC(=O)[C@H](CCC(=O)O)NC(=O)[C@H](CCC(=O)O)NC(=O)[C@@H]1CCCN1C(=O)[C@H](CCCCNC(=O)CCCCCNC(=O)CC[C@H](NC(=O)CCCCCCCCCCCCCCCCC(=O)O)C(=O)O)NC(=O)[C@H](C)NC(=O)[C@@H]1CCCN1C(=O)[C@H](C)NC(=O)CC(C)C)[C@@H](C)O)C(=O)N[C@@H](CCC(N)=O)C(=O)N[C@@H](CCCNC(=N)N)C(=O)N[C@@H](Cc1ccc(O)cc1)C(=O)N[C@@H](Cc1ccc(O)cc1)C(=O)N[C@H](C(=O)N[C@@H](C)C(=O)N[C@@H](CC(C)C)C(=O)N[C@@H](CCCNC(=N)N)C(=O)N[C@@H](Cc1c[nH]cn1)C(=O)N[C@@H](Cc1ccc(O)cc1)C(=O)N[C@@H](Cc1ccc(O)cc1)C(=O)N[C@@H](CC(N)=O)C(=O)N[C@@H](Cc1c[nH]c2ccccc12)C(=O)N[C@@H](CC(C)C)C(=O)N[C@H](C(=O)N[C@@H](CCCNC(=N)N)C(=O)N[C@@H](CCC(N)=O)C(=O)N[C@@H](CCCNC(=N)N)C(=O)N[C@@H](Cc1ccc(O)cc1)C(N)=O)[C@@H](C)O)C(C)C
# B2: Compound 126 (peptide)
# peptide: Isovaleryl-APEK([Ahx-γGlu-C18 diacid])PEEDAEPEELQRYYVSLRHYYNWLTRQRY-NH2
# SMILES: CC(C)CC(=O)N[C@@H](C)C(=O)N1CCC[C@H]1C(=O)N[C@@H](CCC(=O)O)C(=O)N[C@@H](CCCCNC(=O)CCCCCNC(=O)CC[C@H](NC(=O)CCCCCCCCCCCCCCCCC(=O)O)C(=O)O)C(=O)N1CCC[C@H]1C(=O)N[C@@H](CCC(=O)O)C(=O)N[C@@H](CCC(=O)O)C(=O)N[C@@H](CC(=O)O)C(=O)N[C@@H](C)C(=O)N[C@@H](CCC(=O)O)C(=O)N1CCC[C@H]1C(=O)N[C@@H](CCC(=O)O)C(=O)N[C@@H](CCC(=O)O)C(=O)N[C@@H](CC(C)C)C(=O)N[C@@H](CCC(N)=O)C(=O)N[C@@H](CCCNC(=N)N)C(=O)N[C@@H](Cc1ccc(O)cc1)C(=O)N[C@@H](Cc1ccc(O)cc1)C(=O)N[C@H](C(=O)N[C@@H](CO)C(=O)N[C@@H](CC(C)C)C(=O)N[C@@H](CCCNC(=N)N)C(=O)N[C@@H](Cc1c[nH]cn1)C(=O)N[C@@H](Cc1ccc(O)cc1)C(=O)N[C@@H](Cc1ccc(O)cc1)C(=O)N[C@@H](CC(N)=O)C(=O)N[C@@H](Cc1c[nH]c2ccccc12)C(=O)N[C@@H](CC(C)C)C(=O)N[C@H](C(=O)N[C@@H](CCCNC(=N)N)C(=O)N[C@@H](CCC(N)=O)C(=O)N[C@@H](CCCNC(=N)N)C(=O)N[C@@H](Cc1ccc(O)cc1)C(N)=O)[C@@H](C)O)C(C)C
# B3: Compound 123 (peptide)
# peptide: Isovaleryl-APEK([Ahx-γGlu-C18 diacid])PEEDAAPEELQKYYVSLRHYYNWLTRQRY-NH2
# SMILES: CC(C)CC(=O)N[C@@H](C)C(=O)N1CCC[C@H]1C(=O)N[C@@H](CCC(=O)O)C(=O)N[C@@H](CCCCNC(=O)CCCCCNC(=O)CC[C@H](NC(=O)CCCCCCCCCCCCCCCCC(=O)O)C(=O)O)C(=O)N1CCC[C@H]1C(=O)N[C@@H](CCC(=O)O)C(=O)N[C@@H](CCC(=O)O)C(=O)N[C@@H](CC(=O)O)C(=O)N[C@@H](C)C(=O)N[C@@H](C)C(=O)N1CCC[C@H]1C(=O)N[C@@H](CCC(=O)O)C(=O)N[C@@H](CCC(=O)O)C(=O)N[C@@H](CC(C)C)C(=O)N[C@@H](CCC(N)=O)C(=O)N[C@@H](CCCCN)C(=O)N[C@@H](Cc1ccc(O)cc1)C(=O)N[C@@H](Cc1ccc(O)cc1)C(=O)N[C@H](C(=O)N[C@@H](CO)C(=O)N[C@@H](CC(C)C)C(=O)N[C@@H](CCCNC(=N)N)C(=O)N[C@@H](Cc1c[nH]cn1)C(=O)N[C@@H](Cc1ccc(O)cc1)C(=O)N[C@@H](Cc1ccc(O)cc1)C(=O)N[C@@H](CC(N)=O)C(=O)N[C@@H](Cc1c[nH]c2ccccc12)C(=O)N[C@@H](CC(C)C)C(=O)N[C@H](C(=O)N[C@@H](CCCNC(=N)N)C(=O)N[C@@H](CCC(N)=O)C(=O)N[C@@H](CCCNC(=N)N)C(=O)N[C@@H](Cc1ccc(O)cc1)C(N)=O)[C@@H](C)O)C(C)C
# B4: Compound 125 (peptide)
# peptide: Isovaleryl-APEK([Ahx-γGlu-C18 diacid])PEEDASPEELQRYYVELRHYYNWLTRQRY-NH2
# SMILES: CC(C)CC(=O)N[C@@H](C)C(=O)N1CCC[C@H]1C(=O)N[C@@H](CCC(=O)O)C(=O)N[C@@H](CCCCNC(=O)CCCCCNC(=O)CC[C@H](NC(=O)CCCCCCCCCCCCCCCCC(=O)O)C(=O)O)C(=O)N1CCC[C@H]1C(=O)N[C@@H](CCC(=O)O)C(=O)N[C@@H](CCC(=O)O)C(=O)N[C@@H](CC(=O)O)C(=O)N[C@@H](C)C(=O)N[C@@H](CO)C(=O)N1CCC[C@H]1C(=O)N[C@@H](CCC(=O)O)C(=O)N[C@@H](CCC(=O)O)C(=O)N[C@@H](CC(C)C)C(=O)N[C@@H](CCC(N)=O)C(=O)N[C@@H](CCCNC(=N)N)C(=O)N[C@@H](Cc1ccc(O)cc1)C(=O)N[C@@H](Cc1ccc(O)cc1)C(=O)N[C@H](C(=O)N[C@@H](CCC(=O)O)C(=O)N[C@@H](CC(C)C)C(=O)N[C@@H](CCCNC(=N)N)C(=O)N[C@@H](Cc1c[nH]cn1)C(=O)N[C@@H](Cc1ccc(O)cc1)C(=O)N[C@@H](Cc1ccc(O)cc1)C(=O)N[C@@H](CC(N)=O)C(=O)N[C@@H](Cc1c[nH]c2ccccc12)C(=O)N[C@@H](CC(C)C)C(=O)N[C@H](C(=O)N[C@@H](CCCNC(=N)N)C(=O)N[C@@H](CCC(N)=O)C(=O)N[C@@H](CCCNC(=N)N)C(=O)N[C@@H](Cc1ccc(O)cc1)C(N)=O)[C@@H](C)O)C(C)C
# B5: Compound 121 (peptide)
# peptide: Isovaleryl-APEK([Ahx-γGlu-C18 diacid])PEADASPEELQRYYVQLRHYYNWLTRQRY-NH2
# SMILES: CC(C)CC(=O)N[C@@H](C)C(=O)N1CCC[C@H]1C(=O)N[C@@H](CCC(=O)O)C(=O)N[C@@H](CCCCNC(=O)CCCCCNC(=O)CC[C@H](NC(=O)CCCCCCCCCCCCCCCCC(=O)O)C(=O)O)C(=O)N1CCC[C@H]1C(=O)N[C@@H](CCC(=O)O)C(=O)N[C@@H](C)C(=O)N[C@@H](CC(=O)O)C(=O)N[C@@H](C)C(=O)N[C@@H](CO)C(=O)N1CCC[C@H]1C(=O)N[C@@H](CCC(=O)O)C(=O)N[C@@H](CCC(=O)O)C(=O)N[C@@H](CC(C)C)C(=O)N[C@@H](CCC(N)=O)C(=O)N[C@@H](CCCNC(=N)N)C(=O)N[C@@H](Cc1ccc(O)cc1)C(=O)N[C@@H](Cc1ccc(O)cc1)C(=O)N[C@H](C(=O)N[C@@H](CCC(N)=O)C(=O)N[C@@H](CC(C)C)C(=O)N[C@@H](CCCNC(=N)N)C(=O)N[C@@H](Cc1c[nH]cn1)C(=O)N[C@@H](Cc1ccc(O)cc1)C(=O)N[C@@H](Cc1ccc(O)cc1)C(=O)N[C@@H](CC(N)=O)C(=O)N[C@@H](Cc1c[nH]c2ccccc12)C(=O)N[C@@H](CC(C)C)C(=O)N[C@H](C(=O)N[C@@H](CCCNC(=N)N)C(=O)N[C@@H](CCC(N)=O)C(=O)N[C@@H](CCCNC(=N)N)C(=O)N[C@@H](Cc1ccc(O)cc1)C(N)=O)[C@@H](C)O)C(C)C
# B6: Compound 124 (peptide)
# peptide: Isovaleryl-APEK([Ahx-γGlu-C18 diacid])PEAAAEPEEIQRYYVSLRHYYNWLTRQRY-NH2
# SMILES: CC[C@H](C)[C@H](NC(=O)[C@H](CCC(=O)O)NC(=O)[C@H](CCC(=O)O)NC(=O)[C@@H]1CCCN1C(=O)[C@H](CCC(=O)O)NC(=O)[C@H](C)NC(=O)[C@H](C)NC(=O)[C@H](C)NC(=O)[C@H](CCC(=O)O)NC(=O)[C@@H]1CCCN1C(=O)[C@H](CCCCNC(=O)CCCCCNC(=O)CC[C@H](NC(=O)CCCCCCCCCCCCCCCCC(=O)O)C(=O)O)NC(=O)[C@H](CCC(=O)O)NC(=O)[C@@H]1CCCN1C(=O)[C@H](C)NC(=O)CC(C)C)C(=O)N[C@@H](CCC(N)=O)C(=O)N[C@@H](CCCNC(=N)N)C(=O)N[C@@H](Cc1ccc(O)cc1)C(=O)N[C@@H](Cc1ccc(O)cc1)C(=O)N[C@H](C(=O)N[C@@H](CO)C(=O)N[C@@H](CC(C)C)C(=O)N[C@@H](CCCNC(=N)N)C(=O)N[C@@H](Cc1c[nH]cn1)C(=O)N[C@@H](Cc1ccc(O)cc1)C(=O)N[C@@H](Cc1ccc(O)cc1)C(=O)N[C@@H](CC(N)=O)C(=O)N[C@@H](Cc1c[nH]c2ccccc12)C(=O)N[C@@H](CC(C)C)C(=O)N[C@H](C(=O)N[C@@H](CCCNC(=N)N)C(=O)N[C@@H](CCC(N)=O)C(=O)N[C@@H](CCCNC(=N)N)C(=O)N[C@@H](Cc1ccc(O)cc1)C(N)=O)[C@@H](C)O)C(C)C
# Target: T1, human NPY2 receptor
# Experiment: RLB: displacement of 125I-PYY(1-36) from hNPY2R membranes
row,Ki [nM],Binder
1,1.49,B1
2,4.42,B2
3,3.65,B3
4,3.37,B4
5,1.45,B5
6,3.07,B6
